Test results: patent US20230192820A1 (published 2023)

Target: stabilized trimer of the full ectodomain of SARS-CoV-2 spike protein (residues 1-1208, NIAID VRC7471) (SARS-CoV-2, UniProt P0DTC2 14-1208)

Binder | Kd [nM]
MAb362 IgA1 (monomeric) (antibody, V domains shown) VH: QVQLVESGGGVVQPGRSLRLSCAASGFSFSSYGMHWVRQAPGKGLEWVAVIWYDGSDKYYADSVKGRFTISRDNSKNTLYLQLNSLRAEDTAIYYCARERYFDWIFDFWGQGTLVTVSS VL: not shown | 0.17
MAb362 IgG1 (antibody, V domains shown) VH: QVQLVESGGGVVQPGRSLRLSCAASGFSFSSYGMHWVRQAPGKGLEWVAVIWYDGSDKYYADSVKGRFTISRDNSKNTLYLQLNSLRAEDTAIYYCARERYFDWIFDFWGQGTLVTVSS VL: not shown | 27
